Source: PMC7876108, “Cryo-EM structures of engineered active bc1-cbb3 type CIII2CIV super-complexes and electronic communication between the complexes” (Nature Communications, 2021)
Each block holds one binder with its values, some of them ahead of it.

B1: cytochrome b, subunit of CIII2 (natural protein, Rhodobacter capsulatus)
chain: MSGIPHDHYEPKTGIEKWLHDRLPIVGLVYDTIMIPTPKNLNWWWIWGIVLAFTLVLQIVTGIVLAMHYTPHVDLAFASVEHIMRDVNGGWAMRYIHANGASLFFLAVYIHIFRGLYYGSYKAPREITWIVGMVIYLLMMGTAFMGYVLPWGQMSFWGATVITGLFGAIPGIGPSIQAWLLGGPAVDNATLNRFFSLHYLLPFVIAALVAIHIWAFHTTGNNNPTGVEVRRTSKADAEKDTLPFWPYFVIKDLFALALVLLGFFAVVAYMPNYLGHPDNYVQANPLSTPAHIVPEWYFLPFYAILRAFAADVWVVILVDGLTFGIVDAKFFGVIAMFGAIAVMALAPWLDTSKVRSGAYRPKFRMWFWFLVLDFVVLTWVGAMPTEYPYDWISLIASTYWFAYFLVILPLLGATEKPEPIPASIEEDFNSHYGNPAE
notes: cytochrome b (petB), Rhodobacter capsulatus; also called cyt b; PetB

Tests used:
[1] = target: the molecule itself; assay: cryo-EM structure; purified bipartite SC mixed with 5-fold molar excess of purified cyt cy; map SC-2A, 5.2 A; models fitted as rigid bodies
[2] = target: B1; assay: as above; settings: both partners purified
[3] = target: T1, cytochrome cy, full length (membrane-anchored) (Rhodobacter capsulatus, UniProt Q05389 1-199); assay: cross-linking; XL-MS: cyt cy with CIII2CIV, DMTMM; settings: both partners purified
T1 construct: cytochrome cy (cycY), Rhodobacter capsulatus: 30-residue TMH, 69-residue linker, 100-residue cyt c domain; Only its TMH is resolved in map SC-2A; also called cyt cy; intact cyt cy; source: purified
T1 sequence (looked up): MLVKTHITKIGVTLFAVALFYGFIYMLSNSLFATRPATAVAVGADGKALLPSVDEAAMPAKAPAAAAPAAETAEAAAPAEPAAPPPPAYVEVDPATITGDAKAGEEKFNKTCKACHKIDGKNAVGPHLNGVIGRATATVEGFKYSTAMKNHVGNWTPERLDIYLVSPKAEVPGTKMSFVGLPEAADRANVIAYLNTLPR

[4] = target: T2, cytochrome c1, subunit of bc1-type CIII2 (Rhodobacter capsulatus, UniProt D5ANZ4 22-279); assay: cross-linking; XL-MS: 300 ug purified bc1-type CIII2 with 2-fold molar excess of cyt c2, 20 mM DMTMM, 1 h, room temperature, low salt (20 mM Na-phosphate pH 7.4, 1 mM NaCl, 0.01% DDM); settings: both partners purified
T2 construct: cytochrome c1 (petC), Rhodobacter capsulatus; Stood within the CIII2 complex (FeS protein, cyt b, cyt c1; a dimer) in the cross-linking and in the cryo-EM maps of native CIII2; also called cyt c1; PetC; source: native CIII2 particles in the bipartite SC + cy sample
T2 sequence (looked up): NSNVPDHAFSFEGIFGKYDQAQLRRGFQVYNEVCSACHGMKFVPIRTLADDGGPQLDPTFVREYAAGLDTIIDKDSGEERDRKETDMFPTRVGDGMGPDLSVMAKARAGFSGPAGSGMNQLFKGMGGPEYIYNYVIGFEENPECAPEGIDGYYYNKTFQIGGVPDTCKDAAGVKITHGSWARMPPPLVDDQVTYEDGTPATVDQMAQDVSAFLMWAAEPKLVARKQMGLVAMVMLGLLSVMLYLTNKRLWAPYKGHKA

[5] = target: T3, CcoP, subunit of cbb3-type CIV (Rhodobacter capsulatus, UniProt D5ARP7 1-297); assay: cross-linking; XL-MS: 300 ug purified cbb3-type CIV with 2-fold molar excess of cyt c2, 20 mM DMTMM, 1 h, room temperature, low salt (20 mM Na-phosphate pH 7.4, 1 mM NaCl, 0.01% DDM); settings: both partners purified
T3 construct: CcoP subunit of the cbb3-type CIV, Rhodobacter capsulatus; Stood within purified CIV in the cross-linking
T3 sequence (looked up): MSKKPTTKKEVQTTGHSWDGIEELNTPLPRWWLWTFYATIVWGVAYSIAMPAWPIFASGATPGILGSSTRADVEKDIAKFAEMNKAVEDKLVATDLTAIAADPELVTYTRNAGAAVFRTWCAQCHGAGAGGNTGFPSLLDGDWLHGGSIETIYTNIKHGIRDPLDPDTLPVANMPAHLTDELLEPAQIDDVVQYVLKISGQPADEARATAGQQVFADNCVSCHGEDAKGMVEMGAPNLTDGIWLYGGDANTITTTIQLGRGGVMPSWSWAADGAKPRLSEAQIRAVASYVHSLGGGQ

[6] = target: T2, cytochrome c1, subunit of bc1-type CIII2; assay: cryo-EM structure; native CIII2 particles in the bipartite SC + cy samples; maps CIII2 (3.3 A), CIII2 c-c (3.8 A), b-c (4.2 A), b-b (3.5 A); settings: both partners purified
[7] = target: B1; assay: as above; settings: both partners purified

Binder: B1
binding result [1]: binds

binding result [2]: binds
binding result [3]: binds
B2: cyt c1-CcoP fusion subunit of the bipartite SC (His8) (other, Rhodobacter capsulatus, UniProt D5ANZ4 22-279, looked up)
chain: NSNVPDHAFSFEGIFGKYDQAQLRRGFQVYNEVCSACHGMKFVPIRTLADDGGPQLDPTFVREYAAGLDTIIDKDSGEERDRKETDMFPTRVGDGMGPDLSVMAKARAGFSGPAGSGMNQLFKGMGGPEYIYNYVIGFEENPECAPEGIDGYYYNKTFQIGGVPDTCKDAAGVKITHGSWARMPPPLVDDQVTYEDGTPATVDQMAQDVSAFLMWAAEPKLVARKQMGLVAMVMLGLLSVMLYLTNKRLWAPYKGHKASKKPTTKKEVQTTGHSWDGIEELNTPLPRWWLWTFYATIVWGVAYSIAMPAWPIFASGATPGILGSSTRADVEKDIAKFAEMNKAVEDKLVATDLTAIAADPELVTYTRNAGAAVFRTWCAQCHGAGAGGNTGFPSLLDGDWLHGGSIETIYTNIKHGIRDPLDPDTLPVANMPAHLTDELLEPAQIDDVVQYVLKISGQPADEARATAGQQVFADNCVSCHGEDAKGMVEMGAPNLTDGIWLYGGDANTITTTIQLGRGGVMPSWSWAADGAKPRLSEAQIRAVASYVHSLGGGQ
notes: cytochrome c1 (petC), Rhodobacter capsulatus; stop codon eliminated, no linker to CcoP; CcoP subunit of the cbb3-type CIV, Rhodobacter capsulatus; start codon eliminated; About 65 kDa; Stood within the bipartite SC; also called petC::ccoP-His8; source: R. capsulatus pYO76/YO12, subunit of the purified bipartite SC; not shown: His8, C-terminal, kept

binding result [4]: binds
binding result [5]: binds
B3: cytochrome c2 (natural protein, Rhodobacter capsulatus, UniProt P00094 22-137, looked up)
chain: GDAAKGEKEFNKCKTCHSIIAPDGTEIVKGAKTGPNLYGVVGRTAGTYPEFKYKDSIVALGASGFAWTEEDIATYVKDPGAFLKEKLDDKKAKTGMAFKLAKGGEDVAAYLASVVK
notes: soluble cytochrome c2, Rhodobacter capsulatus; also called cyt c2; source: purified R. capsulatus cyt c2

binding result [6]: binds
binding result [7]: binds
binding result [3]: binds
B4: Rieske FeS protein, subunit of CIII2 (natural protein, Rhodobacter capsulatus)
chain: MSHAEDNAGTRRDFLYHATAATGVVVTGAAVWPLINQMNASADVKAMASIFVDVSAVEVGTQLTVKWRGKPVFIRRRDEKDIELARSVPLGALRDTSAENANKPGAEATDENRTLPAFDGTNTGEWLVMLGVCTHLGCVPMGDKSGDFGGWFCPCHGSHYDSAGRIRKGPAPRNLDIPVAAFVDETTIKLG
notes: Rieske FeS protein (petA), Rhodobacter capsulatus; TMH residues 11-49, external domain (ED) residues 50-191 in the model; also called PetA; FeS-ED (its external domain); source: R. capsulatus pYO76/YO12, subunit of the purified bipartite SC and of the native CIII2 particles in that sample
